Results taken from patent US20230250134A1 (University of Washington, published 2023).
Read-outs that look alike come from different tables or passages of the source.

B1: LCB3_v1.2-GS-LCB1_v1.1 (3GS1) (designed binder)
chain: NDDELHMQMTDLVYEALHFAKDEEIQKHVFQLFEKATKAYKNKDRQKLEKVVEELKELLERLLSGGGGSGGGGSGGGGSGGGGSGGGGSGGGGSGGGGSGGGGSGGGGSGGGGSGGGGSGGGGSGGGGSGGGGSGGGGSDKENILQKIYEIMKTLDQLGHAEASMQVSDLIYEFMKQGDERLLEEAERLLEEVER
B2: LCB1_v1.1-GS-LCB3_v1.2 (1GS3) (designed binder)
chain: DKENILQKIYEIMKTLDQLGHAEASMQVSDLIYEFMKQGDERLLEEAERLLEEVERGGGGSGGGGSGGGGSGGGGSGGGGSGGGGSGGGGSGGGGSGGGGSGGGGSGGGGSGGGGSGGGGSGGGGSGGGGSNDDELHMQMTDLVYEALHFAKDEEIQKHVFQLFEKATKAYKNKDRQKLEKVVEELKELLERLLS
B3: LCB1-3 (designed binder)
chain: DKEWILQKIYEIMRLLDELGHAEASMRVSDLIYEFMKQGDERLLEEAERLLEEVER
B4: LCB3_v1.2-PRO-LCB3_v1.2 (3PRO3) (designed binder)
chain: NDDELHMQMTDLVYEALHFAKDEEIQKHVFQLFEKATKAYKNKDRQKLEKVVEELKELLERLLSAGSGGSGGSGGSPVPSTPPTPSPSTPPTPSPSPVPSTPPTPSPSTPPTPSPSPVPSTPPTPSPSTPPTPSPSASGNDDELHMQMTDLVYEALHFAKDEEIQKHVFQLFEKATKAYKNKDRQKLEKVVEELKELLERLLS
B5: LCB6-2 (designed binder)
chain: DREQRLVRFLVRLASKFNLSMEQILILFDVLEELLERGVSEEEIRKILEEVAKEL
B6: AHB2-2 (designed binder)
chain: ELEEQVMHVLDQVSELAHELLHKLTGEELERAAYFNWWATEMMLELIKSDDEREIREIEEEARRILEHLEELARK
B7: LCB1_v1.1-PRO-LCB3_v1.2 (1PRO3) (designed binder)
chain: DKENILQKIYEIMKTLDQLGHAEASMQVSDLIYEFMKQGDERLLEEAERLLEEVERAGSGGSGGSGGSPVPSTPPTPSPSTPPTPSPSPVPSTPPTPSPSTPPTPSPSPVPSTPPTPSPSTPPTPSPSASGNDDELHMQMTDLVYEALHFAKDEEIQKHVFQLFEKATKAYKNKDRQKLEKVVEELKELLERLLS
B8: LCB3_v1.2-GS3-LCB3_v1.2 (3GS3) (designed binder)
chain: NDDELHMQMTDLVYEALHFAKDEEIQKHVFQLFEKATKAYKNKDRQKLEKVVEELKELLERLLSGGGGSGGGGSGGGGSGGGGSGGGGSGGGGSGGGGSGGGGSGGGGSGGGGSGGGGSGGGGSGGGGSGGGGSGGGGSNDDELHMQMTDLVYEALHFAKDEEIQKHVFQLFEKATKAYKNKDRQKLEKVVEELKELLERLLS
B9: LCB1_v1.1-GSLCB1_v1.1 (1GS1) (designed binder)
chain: DKENILQKIYEIMKTLDQLGHAEASMQVSDLIYEFMKQGDERLLEEAERLLEEVERGGGGSGGGGSGGGGSGGGGSGGGGSGGGGSGGGGSGGGGSGGGGSGGGGSGGGGSGGGGSGGGGSGGGGSGGGGSDKENILQKIYEIMKTLDQLGHAEASMQVSDLIYEFMKQGDERLLEEAERLLEEVER
B10: LCB1-12GS-LCB1 (designed binder)
chain: DKEWILQKIYEIMRLLDELGHAEASMRVSDLIYEFMKKGDERLLEEAERLLEEVERGGSGGSGSGGSGDKEWILQKIYEIMRLLDELGHAEASMRVSDLIYEFMKKGDERLLEEAERLLEEVER
B11: LCB1_v1.1-PRO-LCB1_v1.1 (1PRO1) (designed binder)
chain: DKENILQKIYEIMKTLDQLGHAEASMQVSDLIYEFMKQGDERLLEEAERLLEEVERAGSGGSGGSGGSPVPSTPPTPSPSTPPTPSPSPVPSTPPTPSPSTPPTPSPSPVPSTPPTPSPSTPPTPSPSASGDKENILQKIYEIMKTLDQLGHAEASMQVSDLIYEFMKQGDERLLEEAERLLEEVER
B12: LCB6-1 (designed binder)
chain: DREQRLVRFLVRLASKFNLSPEQILQLFEVLEELLERGVSEEEIRKQLEEVAKELG
B13: LCB3_v1.2-PRO-LCB1_v1.1 (3PRO1) (designed binder)
chain: NDDELHMQMTDLVYEALHFAKDEEIQKHVFQLFEKATKAYKNKDRQKLEKVVEELKELLERLLSAGSGGSGGSGGSPVPSTPPTPSPSTPPTPSPSPVPSTPPTPSPSTPPTPSPSPVPSTPPTPSPSTPPTPSPSASGDKENILQKIYEIMKTLDQLGHAEASMQVSDLIYEFMKQGDERLLEEAERLLEEVER
B14: LCB3_v1.2-10GS-LCB1_v1.1 (LCB3-GS10-LCB1) (designed binder)
chain: NDDELHMQMTDLVYEALHFAKDEEIQKHVFQLFEKATKAYKNKDRQKLEKVVEELKELLERLLSGGSGGSGGSGDKENILQKIYEIMKTLDQLGHAEASMQVSDLIYEFMKQGDERLLEEAERLLEEVER
B15: LCB1-6GS-LCB1 (designed binder)
chain: DKEWILQKIYEIMRLLDELGHAEASMRVSDLIYEFMKKGDERLLEEAERLLEEVERGGSGGSDKEWILQKIYEIMRLLDELGHAEASMRVSDLIYEFMKKGDERLLEEAERLLEEVER
B16: LCB7-2 (designed binder)
chain: DDDVRYLIYMAKLLLEQGNPEEAEKVLESARFAAELLGNEELLKEVRELLRKIEELR

How the values were obtained:
[1] = target: SARS-COV-2 Spike glycoprotein (SARS-CoV-2, UniProt P0DTC2 14-1208); test: estimated Kd for Spike (avidity), Table 10
[2] = target: T1, SARS-COV-2 Spike glycoprotein receptor binding domain (RBD) (SARS-CoV-2, UniProt P0DTC2 319-541)
[3] = target: SARS-COV-2 spike protein on authentic virus, strain 2019 n-COV/USA_WA1/2020 (SARS-CoV-2, UniProt P0DTC2 14-1273); test: cell-based or functional assay
[4] = target: T1, SARS-COV-2 Spike glycoprotein receptor …; test: estimated Kd for RBD, Table 10

Binder	Kd [1]	Kd [2]	SARS-CoV-2 Neutralization IC50 [3]	Kd [4]
B1	0.1 nM	0.2 nM		
B2	0.1 nM	0.2 nM		
B3	0.1 nM		0.01 nM	0.2 nM
B4	0.1 nM	0.2 nM		
B5	0.1 nM		0.01 nM	0.2 nM
B6	0.1 nM	0.2 nM		
B7	0.1 nM	0.2 nM		
B8	0.1 nM	0.2 nM		
B9	0.1 nM	0.2 nM		
B10			0.01 nM	0.2 nM
B11	0.1 nM	0.2 nM		
B12	0.1 nM		0.01 nM	0.2 nM
B13	0.1 nM	0.2 nM		
B14	0.1 nM	0.2 nM		
B15			0.01 nM	0.2 nM
B16	0.1 nM	0.2 nM		
